In the data set the test system is N#CCCC#N. Put plainly: purified protein. In kind it is biochemical, uncultured Burkholderiaceae bacterium. As to conditions: 50 mM potassium phosphate pH 7.0, 40 °C, 2 mM DTT, 0-975 mM substrate.

“NitraS-ATII (uncultured Burkholderiaceae bacterium)”: the Km (in general, the concentration of substrate that gives half-maximal velocity) turned out to be 59.4 ± 6.8 mM; the catalytic constant (kcat) (as a rule, the number of substrate molecules converted per active site and unit of time at saturation) is 0.472 s⁻¹.

Source of the values: PMC4751646, “Red Sea Atlantis II brine pool nitrilase with unique thermostability profile and heavy metal tolerance” (BMC Biotechnology, 2016).
